Reference: patent publication US20140087995A1 (published 2014)
Numbered stars: 1 amine (or outer) side, 2 acyl side, 3 side chain; on linkers, the order of the positions; unused ones are H or OH. Bridge positions count the residues as written; N and C are the ends. Side chains are listed from the residue outwards. Ends that are not written are not given here. * marks the point of attachment. C20 diacid = O=C(O)CCCCCCCCCCCCCCCCCCC(=O)*; γGlu = O=C(O)[C@H](CCC(=O)[*:2])N[*:1]; AEEA = NCCOCCOCC(=O)O

T1: human calcitonin receptor (human, UniProt P30988 25-474)
T1 sequence (looked up): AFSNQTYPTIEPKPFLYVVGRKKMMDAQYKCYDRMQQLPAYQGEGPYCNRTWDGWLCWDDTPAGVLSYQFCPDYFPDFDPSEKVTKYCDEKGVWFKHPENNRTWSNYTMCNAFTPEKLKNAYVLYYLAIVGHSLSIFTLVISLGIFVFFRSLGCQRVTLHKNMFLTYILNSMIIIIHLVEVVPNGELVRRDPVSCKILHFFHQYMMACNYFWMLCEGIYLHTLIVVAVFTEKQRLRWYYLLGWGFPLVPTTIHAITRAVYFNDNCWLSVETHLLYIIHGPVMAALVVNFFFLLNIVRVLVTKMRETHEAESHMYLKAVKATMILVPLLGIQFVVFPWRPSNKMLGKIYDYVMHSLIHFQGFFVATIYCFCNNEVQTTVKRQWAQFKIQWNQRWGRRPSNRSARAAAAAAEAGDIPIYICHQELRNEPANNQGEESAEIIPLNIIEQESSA

T2: human amylin receptor (amylin 3(a) receptor: human calcitonin receptor co-expressed with RAMP-3) (human, UniProt P30988 25-474; O60896 24-148, limits assumed)
T2 sequence (looked up) 1: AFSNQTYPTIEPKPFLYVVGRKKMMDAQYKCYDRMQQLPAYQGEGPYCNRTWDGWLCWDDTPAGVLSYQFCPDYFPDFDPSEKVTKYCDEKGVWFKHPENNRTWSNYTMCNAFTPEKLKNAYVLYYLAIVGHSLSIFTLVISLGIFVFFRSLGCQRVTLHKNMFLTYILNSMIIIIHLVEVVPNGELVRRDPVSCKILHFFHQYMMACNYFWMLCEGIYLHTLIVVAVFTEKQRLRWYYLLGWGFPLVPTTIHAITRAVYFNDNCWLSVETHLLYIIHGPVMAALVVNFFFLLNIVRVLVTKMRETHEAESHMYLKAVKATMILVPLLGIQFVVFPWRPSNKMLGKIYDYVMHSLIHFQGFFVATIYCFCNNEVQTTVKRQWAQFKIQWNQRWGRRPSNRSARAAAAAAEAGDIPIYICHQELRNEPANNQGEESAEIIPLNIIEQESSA
T2 sequence (looked up) 2: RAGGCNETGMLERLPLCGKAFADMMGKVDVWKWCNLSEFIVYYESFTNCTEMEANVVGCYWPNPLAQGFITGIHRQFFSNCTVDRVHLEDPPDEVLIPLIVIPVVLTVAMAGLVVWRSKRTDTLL

B1: N^ε1-[(4S)-4-carboxy-4-(19-carboxynonadecanoylamino)butanoyl]-[His14,Arg17,Pro21,Pro27]-h-amylin (peptide)
peptide: K([γGlu-C20 diacid])CNTATCATQRLAHFLRHSSPNFGAIPSSTNVGSNTY-NH2
modifications: disulfide 2-7; N-terminus assumed
SMILES: CC[C@H](C)[C@H](NC(=O)[C@H](C)NC(=O)CNC(=O)[C@H](Cc1ccccc1)NC(=O)[C@H](CC(N)=O)NC(=O)[C@@H]1CCCN1C(=O)[C@H](CO)NC(=O)[C@H](CO)NC(=O)[C@H](Cc1c[nH]cn1)NC(=O)[C@H](CCCNC(=N)N)NC(=O)[C@H](CC(C)C)NC(=O)[C@H](Cc1ccccc1)NC(=O)[C@H](Cc1c[nH]cn1)NC(=O)[C@H](C)NC(=O)[C@H](CC(C)C)NC(=O)[C@H](CCCNC(=N)N)NC(=O)[C@H](CCC(N)=O)NC(=O)[C@@H](NC(=O)[C@H](C)NC(=O)[C@@H]1CSSC[C@H](NC(=O)[C@@H](N)CCCCNC(=O)CC[C@H](NC(=O)CCCCCCCCCCCCCCCCCCC(=O)O)C(=O)O)C(=O)N[C@@H](CC(N)=O)C(=O)N[C@@H]([C@@H](C)O)C(=O)N[C@@H](C)C(=O)N[C@@H]([C@@H](C)O)C(=O)N1)[C@@H](C)O)C(=O)N1CCC[C@H]1C(=O)N[C@@H](CO)C(=O)N[C@@H](CO)C(=O)N[C@H](C(=O)N[C@@H](CC(N)=O)C(=O)N[C@H](C(=O)NCC(=O)N[C@@H](CO)C(=O)N[C@@H](CC(N)=O)C(=O)N[C@H](C(=O)N[C@@H](Cc1ccc(O)cc1)C(N)=O)[C@@H](C)O)C(C)C)[C@@H](C)O
notes: also called compound 70
B2: N^ε1-[(4S)-4-carboxy-4-[[(4S)-4-carboxy-4-(19-carboxynonadecanoylamino)butanoyl]amino]butanoyl]-[Arg17,Pro21,Pro27,His34]-h-amylin (peptide)
peptide: K([γGlu-γGlu-C20 diacid])CNTATCATQRLANFLRHSSPNFGAIPSSTNVGHNTY-NH2
modifications: disulfide 2-7; N-terminus assumed
SMILES: CC[C@H](C)[C@H](NC(=O)[C@H](C)NC(=O)CNC(=O)[C@H](Cc1ccccc1)NC(=O)[C@H](CC(N)=O)NC(=O)[C@@H]1CCCN1C(=O)[C@H](CO)NC(=O)[C@H](CO)NC(=O)[C@H](Cc1c[nH]cn1)NC(=O)[C@H](CCCNC(=N)N)NC(=O)[C@H](CC(C)C)NC(=O)[C@H](Cc1ccccc1)NC(=O)[C@H](CC(N)=O)NC(=O)[C@H](C)NC(=O)[C@H](CC(C)C)NC(=O)[C@H](CCCNC(=N)N)NC(=O)[C@H](CCC(N)=O)NC(=O)[C@@H](NC(=O)[C@H](C)NC(=O)[C@@H]1CSSC[C@H](NC(=O)[C@@H](N)CCCCNC(=O)CC[C@H](NC(=O)CC[C@H](NC(=O)CCCCCCCCCCCCCCCCCCC(=O)O)C(=O)O)C(=O)O)C(=O)N[C@@H](CC(N)=O)C(=O)N[C@@H]([C@@H](C)O)C(=O)N[C@@H](C)C(=O)N[C@@H]([C@@H](C)O)C(=O)N1)[C@@H](C)O)C(=O)N1CCC[C@H]1C(=O)N[C@@H](CO)C(=O)N[C@@H](CO)C(=O)N[C@H](C(=O)N[C@@H](CC(N)=O)C(=O)N[C@H](C(=O)NCC(=O)N[C@@H](Cc1c[nH]cn1)C(=O)N[C@@H](CC(N)=O)C(=O)N[C@H](C(=O)N[C@@H](Cc1ccc(O)cc1)C(N)=O)[C@@H](C)O)C(C)C)[C@@H](C)O
notes: also called compound 86
B3: N^ε1-[(4S)-4-carboxy-4-[[(4S)-4-carboxy-4-(19-carboxynonadecanoylamino)butanoyl]amino]butanoyl]-[Glu14,Arg17,Pro21,Pro27,Arg35]-h-amylin (peptide)
peptide: K([γGlu-γGlu-C20 diacid])CNTATCATQRLAEFLRHSSPNFGAIPSSTNVGSRTY-NH2
modifications: disulfide 2-7; N-terminus assumed
SMILES: CC[C@H](C)[C@H](NC(=O)[C@H](C)NC(=O)CNC(=O)[C@H](Cc1ccccc1)NC(=O)[C@H](CC(N)=O)NC(=O)[C@@H]1CCCN1C(=O)[C@H](CO)NC(=O)[C@H](CO)NC(=O)[C@H](Cc1c[nH]cn1)NC(=O)[C@H](CCCNC(=N)N)NC(=O)[C@H](CC(C)C)NC(=O)[C@H](Cc1ccccc1)NC(=O)[C@H](CCC(=O)O)NC(=O)[C@H](C)NC(=O)[C@H](CC(C)C)NC(=O)[C@H](CCCNC(=N)N)NC(=O)[C@H](CCC(N)=O)NC(=O)[C@@H](NC(=O)[C@H](C)NC(=O)[C@@H]1CSSC[C@H](NC(=O)[C@@H](N)CCCCNC(=O)CC[C@H](NC(=O)CC[C@H](NC(=O)CCCCCCCCCCCCCCCCCCC(=O)O)C(=O)O)C(=O)O)C(=O)N[C@@H](CC(N)=O)C(=O)N[C@@H]([C@@H](C)O)C(=O)N[C@@H](C)C(=O)N[C@@H]([C@@H](C)O)C(=O)N1)[C@@H](C)O)C(=O)N1CCC[C@H]1C(=O)N[C@@H](CO)C(=O)N[C@@H](CO)C(=O)N[C@H](C(=O)N[C@@H](CC(N)=O)C(=O)N[C@H](C(=O)NCC(=O)N[C@@H](CO)C(=O)N[C@@H](CCCNC(=N)N)C(=O)N[C@H](C(=O)N[C@@H](Cc1ccc(O)cc1)C(N)=O)[C@@H](C)O)C(C)C)[C@@H](C)O
notes: also called compound 89
B4: N^ε1-[(4S)-4-carboxy-4-[[(4S)-4-carboxy-4-(19-carboxynonadecanoylamino)butanoyl]amino]butanoyl]-[Glu14,Arg17,Pro21,Pro27,Arg34]-h-amylin (peptide)
peptide: K([γGlu-γGlu-C20 diacid])CNTATCATQRLAEFLRHSSPNFGAIPSSTNVGRNTY-NH2
modifications: disulfide 2-7; N-terminus assumed
SMILES: CC[C@H](C)[C@H](NC(=O)[C@H](C)NC(=O)CNC(=O)[C@H](Cc1ccccc1)NC(=O)[C@H](CC(N)=O)NC(=O)[C@@H]1CCCN1C(=O)[C@H](CO)NC(=O)[C@H](CO)NC(=O)[C@H](Cc1c[nH]cn1)NC(=O)[C@H](CCCNC(=N)N)NC(=O)[C@H](CC(C)C)NC(=O)[C@H](Cc1ccccc1)NC(=O)[C@H](CCC(=O)O)NC(=O)[C@H](C)NC(=O)[C@H](CC(C)C)NC(=O)[C@H](CCCNC(=N)N)NC(=O)[C@H](CCC(N)=O)NC(=O)[C@@H](NC(=O)[C@H](C)NC(=O)[C@@H]1CSSC[C@H](NC(=O)[C@@H](N)CCCCNC(=O)CC[C@H](NC(=O)CC[C@H](NC(=O)CCCCCCCCCCCCCCCCCCC(=O)O)C(=O)O)C(=O)O)C(=O)N[C@@H](CC(N)=O)C(=O)N[C@@H]([C@@H](C)O)C(=O)N[C@@H](C)C(=O)N[C@@H]([C@@H](C)O)C(=O)N1)[C@@H](C)O)C(=O)N1CCC[C@H]1C(=O)N[C@@H](CO)C(=O)N[C@@H](CO)C(=O)N[C@H](C(=O)N[C@@H](CC(N)=O)C(=O)N[C@H](C(=O)NCC(=O)N[C@@H](CCCNC(=N)N)C(=O)N[C@@H](CC(N)=O)C(=O)N[C@H](C(=O)N[C@@H](Cc1ccc(O)cc1)C(N)=O)[C@@H](C)O)C(C)C)[C@@H](C)O
notes: also called compound 88
B5: N^ε21-[(4S)-4-carboxy-4-[[(4S)-4-carboxy-4-(19-carboxynonadecanoylamino)butanoyl]amino]butanoyl]-[Asp14,Arg17,Lys21,Pro27,Asp35]-h-amylin (peptide)
peptide: KCNTATCATQRLADFLRHSSK([γGlu-γGlu-C20 diacid])NFGAIPSSTNVGSDTY-NH2
modifications: disulfide 2-7; N-terminus assumed
SMILES: CC[C@H](C)[C@H](NC(=O)[C@H](C)NC(=O)CNC(=O)[C@H](Cc1ccccc1)NC(=O)[C@H](CC(N)=O)NC(=O)[C@H](CCCCNC(=O)CC[C@H](NC(=O)CC[C@H](NC(=O)CCCCCCCCCCCCCCCCCCC(=O)O)C(=O)O)C(=O)O)NC(=O)[C@H](CO)NC(=O)[C@H](CO)NC(=O)[C@H](Cc1c[nH]cn1)NC(=O)[C@H](CCCNC(=N)N)NC(=O)[C@H](CC(C)C)NC(=O)[C@H](Cc1ccccc1)NC(=O)[C@H](CC(=O)O)NC(=O)[C@H](C)NC(=O)[C@H](CC(C)C)NC(=O)[C@H](CCCNC(=N)N)NC(=O)[C@H](CCC(N)=O)NC(=O)[C@@H](NC(=O)[C@H](C)NC(=O)[C@@H]1CSSC[C@H](NC(=O)[C@@H](N)CCCCN)C(=O)N[C@@H](CC(N)=O)C(=O)N[C@@H]([C@@H](C)O)C(=O)N[C@@H](C)C(=O)N[C@@H]([C@@H](C)O)C(=O)N1)[C@@H](C)O)C(=O)N1CCC[C@H]1C(=O)N[C@@H](CO)C(=O)N[C@@H](CO)C(=O)N[C@H](C(=O)N[C@@H](CC(N)=O)C(=O)N[C@H](C(=O)NCC(=O)N[C@@H](CO)C(=O)N[C@@H](CC(=O)O)C(=O)N[C@H](C(=O)N[C@@H](Cc1ccc(O)cc1)C(N)=O)[C@@H](C)O)C(C)C)[C@@H](C)O
notes: also called compound 59
B6: N^ε1-[2-[2-[2-(19-carboxynonadecanoylamino)ethoxy]ethoxy]acetyl]-[His14,Arg17,Pro21,Pro27]-h-amylin (peptide)
peptide: K([AEEA-C20 diacid])CNTATCATQRLAHFLRHSSPNFGAIPSSTNVGSNTY-NH2
modifications: disulfide 2-7; N-terminus assumed
SMILES: CC[C@H](C)[C@H](NC(=O)[C@H](C)NC(=O)CNC(=O)[C@H](Cc1ccccc1)NC(=O)[C@H](CC(N)=O)NC(=O)[C@@H]1CCCN1C(=O)[C@H](CO)NC(=O)[C@H](CO)NC(=O)[C@H](Cc1c[nH]cn1)NC(=O)[C@H](CCCNC(=N)N)NC(=O)[C@H](CC(C)C)NC(=O)[C@H](Cc1ccccc1)NC(=O)[C@H](Cc1c[nH]cn1)NC(=O)[C@H](C)NC(=O)[C@H](CC(C)C)NC(=O)[C@H](CCCNC(=N)N)NC(=O)[C@H](CCC(N)=O)NC(=O)[C@@H](NC(=O)[C@H](C)NC(=O)[C@@H]1CSSC[C@H](NC(=O)[C@@H](N)CCCCNC(=O)COCCOCCNC(=O)CCCCCCCCCCCCCCCCCCC(=O)O)C(=O)N[C@@H](CC(N)=O)C(=O)N[C@@H]([C@@H](C)O)C(=O)N[C@@H](C)C(=O)N[C@@H]([C@@H](C)O)C(=O)N1)[C@@H](C)O)C(=O)N1CCC[C@H]1C(=O)N[C@@H](CO)C(=O)N[C@@H](CO)C(=O)N[C@H](C(=O)N[C@@H](CC(N)=O)C(=O)N[C@H](C(=O)NCC(=O)N[C@@H](CO)C(=O)N[C@@H](CC(N)=O)C(=O)N[C@H](C(=O)N[C@@H](Cc1ccc(O)cc1)C(N)=O)[C@@H](C)O)C(C)C)[C@@H](C)O
notes: also called compound 90

What was measured:
[1] = target: T1, human calcitonin receptor; assay: cell-based or functional assay
[2] = target: T2, human amylin receptor (amylin 3(a) …); assay: cell-based or functional assay

Binder	hCTR funct. EC50 [1] [nM]	hAmylin-R funct. EC50 [2] [pM]	Ratio hCT/hAmylin funct. [2]
B1	0.715	40	
B2	19.2	298	64.4
B3	11.2	404	27.8
B4	6.55	773	8.5
B5	1.95	389	
B6	0.236	33	7.2
